According to patent publication US20200299373A1 (NEURACLE SCIENCE, published 2020):
Where no end group is shown, it is not given here.

T1: FAM19A5 epitope fragment F2 conjugated to BSA (human, conjugated to BSA)
T1 peptide: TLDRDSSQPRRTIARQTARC

T2: FAM19A5 mutant M1 (human)
T2 construct: Region EP1 is replaced with the FAM19A1-4 consensus; The fusion to the phage protein is not described
T2 chain: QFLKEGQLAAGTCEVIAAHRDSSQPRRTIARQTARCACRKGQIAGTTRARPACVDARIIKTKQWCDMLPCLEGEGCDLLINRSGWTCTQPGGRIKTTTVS

T3: FAM19A5 mutant M6 (human)
T3 construct: Expressed on phage; Region EP6 is replaced with the FAM19A1-4 consensus
T3 chain: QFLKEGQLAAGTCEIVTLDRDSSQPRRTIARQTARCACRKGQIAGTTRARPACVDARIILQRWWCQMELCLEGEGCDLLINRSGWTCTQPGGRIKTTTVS

T4: FAM19A5 mutant M4 (human)
T4 construct: Expressed on phage; Region EP4 is replaced with the FAM19A1-4 consensus
T4 chain: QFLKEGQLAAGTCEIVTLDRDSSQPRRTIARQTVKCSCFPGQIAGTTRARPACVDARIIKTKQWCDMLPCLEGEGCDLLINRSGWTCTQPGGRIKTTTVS

T5: FAM19A5 mutant M7 (human)
T5 construct: Expressed on phage; Region EP7 is replaced with the FAM19A1-4 consensus
T5 chain: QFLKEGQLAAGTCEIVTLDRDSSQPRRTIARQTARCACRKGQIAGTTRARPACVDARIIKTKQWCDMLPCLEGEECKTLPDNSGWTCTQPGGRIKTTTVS

T6: FAM19A5 mutant M8 (human)
T6 construct: Expressed on phage; Region EP8 is replaced with the FAM19A1-4 consensus
T6 chain: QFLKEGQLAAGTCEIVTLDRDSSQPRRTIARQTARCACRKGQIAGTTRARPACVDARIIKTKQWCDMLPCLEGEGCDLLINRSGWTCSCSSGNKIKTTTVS

T7: FAM19A5 mutant M3 (human)
T7 construct: Expressed on phage; Region EP3 is replaced with the FAM19A1-4 consensus
T7 chain: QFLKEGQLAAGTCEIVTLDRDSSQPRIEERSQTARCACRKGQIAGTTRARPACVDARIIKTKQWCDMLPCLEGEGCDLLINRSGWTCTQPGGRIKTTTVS

T8: FAM19A5 mutant M2 (human)
T8 construct: Expressed on phage; It has substitutions at amino acid residues 21-25 (EP2)
T8 chain: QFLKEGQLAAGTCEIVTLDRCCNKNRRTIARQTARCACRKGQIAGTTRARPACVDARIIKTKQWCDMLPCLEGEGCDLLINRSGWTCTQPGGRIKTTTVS

T9: FAM19A5 epitope fragment F1 conjugated to BSA (human, also: conjugated to BSA)
T9 peptide: QLAAGTCEIVTLDR

T10: FAM19A5 epitope fragment F6 conjugated to BSA (human, conjugated to BSA)
T10 peptide: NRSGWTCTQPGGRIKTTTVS

T11: FAM19A5 epitope fragment F4 conjugated to BSA (human, conjugated to BSA)
T11 peptide: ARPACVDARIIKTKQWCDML

T12: FAM19A5 epitope fragment F3 conjugated to BSA (human, conjugated to BSA)
T12 peptide: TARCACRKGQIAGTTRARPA

T13: FAM19A5 epitope fragment F5 conjugated to BSA (human, conjugated to BSA)
T13 peptide: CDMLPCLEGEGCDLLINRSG


Tests used:
[1] = molecular target: T1, FAM19A5 epitope fragment F2 conjugated …; test: ELISA on coated BSA-conjugated peptide
Method: Overlapping peptide fragments (F1-F6, See FIG. 1) of the human FAM19A5 protein were synthesized and conjugated to BSA. Binding of the different anti-FAM19A5 antibodies to the BSA-conjugated peptide fragments F1-F6 was determined by ELISA assay. Briefly, FAM19A5 fragment F1-F6 (diluted to 1 μg/mL in 50 mM carbonate buffer (Biosesang) or to 20 μg/mL for high concentration analysis) were used to coat the wells of 96-well immuno plates (Thermo Scientific) (100 μL/well) overnight at 4° C. and then subsequently washed twice in 1×PBS. The plates were then blocked with the blocking buffer (100 μL/well) for 1 hour at room temperature. During the 1-hour incubation, the relevant anti-FAM19A5 antibodies were diluted to 1 μg/mL (or 20 μg/mL for high concentration analysis) in the diluent buffer. Once the plates were washed (2× using 1×PBS), the diluted anti-FAM19A5 antibodies were added to the appropriate wells, and the plates were incubated at room temperature for 1 hour. The plates were subsequently washed for a total of five times using the washing buffer. […] The absorption value of each of the wells was detected at 492 nm using a 96-well microplate reader (Molecular Device).

FAM19A5 mutant M1 = molecular target: T2, FAM19A5 mutant M1; test: ELISA with phage-displayed FAM19A5 mutants
FAM19A5 mutant M6 = molecular target: T3, FAM19A5 mutant M6; test: ELISA with phage-displayed FAM19A5 mutants
FAM19A5 mutant M4 = molecular target: T4, FAM19A5 mutant M4; test: ELISA with phage-displayed FAM19A5 mutants
FAM19A5 mutant M7 = molecular target: T5, FAM19A5 mutant M7; test: ELISA with phage-displayed FAM19A5 mutants
FAM19A5 mutant M8 = molecular target: T6, FAM19A5 mutant M8; test: ELISA with phage-displayed FAM19A5 mutants
FAM19A5 mutant M3 = molecular target: T7, FAM19A5 mutant M3; test: ELISA with phage-displayed FAM19A5 mutants
FAM19A5 mutant M2 = molecular target: T8, FAM19A5 mutant M2; test: ELISA with phage-displayed FAM19A5 mutants
[2] = molecular target: T9, FAM19A5 epitope fragment F1 conjugated …; test: ELISA on peptide-BSA coated on the plate
Method: (§1) Overlapping peptide fragments (F1-F6, See FIG. 1) of the human FAM19A5 protein were synthesized and conjugated to BSA. Binding of the different anti-FAM19A5 antibodies to the BSA-conjugated peptide fragments F1-F6 was determined by ELISA assay. Briefly, FAM19A5 fragment F1-F6 (diluted to 1 μg/mL in 50 mM carbonate buffer (Biosesang) or to 20 μg/mL for high concentration analysis) were used to coat the wells of 96-well immuno plates (Thermo Scientific) (100 μL/well) overnight at 4° C. and then subsequently washed twice in 1×PBS. The plates were then blocked with the blocking buffer (100 μL/well) for 1 hour at room temperature. During the 1-hour incubation, the relevant anti-FAM19A5 antibodies were diluted to 1 μg/mL (or 20 μg/mL for high concentration analysis) in the diluent buffer. Once the plates were washed (2× using 1×PBS), the diluted anti-FAM19A5 antibodies were added to the appropriate wells, and the plates were incubated at room temperature for 1 hour. The plates were subsequently washed for a total of five times using the washing buffer. Next, the ODP substrate (prepared by dissolving one ODP tablet (0-phenylenediamine Dihydrochloride, Thermo) into 9 mL of sterilized deionized water and 1 mL of 10× stable Peroxide Stable buffer (Theromo)) was added to each of the wells, and the color change reaction was allowed to occur for 10 minutes. This reaction was stopped by adding 100 μL of 2N H2SO4 (Daejung) to the wells. The absorption value of each of the wells was detected at 492 nm using a 96-well microplate reader (Molecular Device).

[3] = molecular target: T10, FAM19A5 epitope fragment F6 conjugated …; test: ELISA on peptide-BSA coated on the plate
Method: as §1

[4] = molecular target: T1, FAM19A5 epitope fragment F2 conjugated …; test: ELISA on peptide-BSA coated on the plate
Method: as §1

[5] = molecular target: T11, FAM19A5 epitope fragment F4 conjugated …; test: ELISA on peptide-BSA coated on the plate
Method: as §1

[6] = molecular target: T12, FAM19A5 epitope fragment F3 conjugated …; test: ELISA on peptide-BSA coated on the plate
Method: as §1

[7] = molecular target: T13, FAM19A5 epitope fragment F5 conjugated …; test: ELISA on peptide-BSA coated on the plate
Method: as §1

[8] = molecular target: T9, FAM19A5 epitope fragment F1 conjugated …; test: ELISA, antigen coated on the plate, antibody in solution, absorbance at 492 nm
Method: as §1

[9] = molecular target: T10, FAM19A5 epitope fragment F6 conjugated …; test: as above
Method: as §1

[10] = molecular target: T1, FAM19A5 epitope fragment F2 conjugated …; test: as above
Method: as §1

[11] = molecular target: T11, FAM19A5 epitope fragment F4 conjugated …; test: as above
Method: as §1

[12] = molecular target: T12, FAM19A5 epitope fragment F3 conjugated …; test: as above
Method: as §1

[13] = molecular target: T13, FAM19A5 epitope fragment F5 conjugated …; test: as above
Method: as §1

Row | binding result [1] | binding result (FAM19A5 mutant M1) | binding result (FAM19A5 mutant M6) | binding result (FAM19A5 mutant M4) | binding result (FAM19A5 mutant M7) | binding result (FAM19A5 mutant M8) | binding result (FAM19A5 mutant M3) | binding result (FAM19A5 mutant M2) | binding result [2] | binding result [3] | binding result [4] | binding result [5] | binding result [6] | binding result [7] | O.D. [8] | O.D. [9] | O.D. [10] | O.D. [11] | O.D. [12] | O.D. [13] | Binder
1 | binds | binds | binds | binds | binds | binds | binds | no binding |  |  |  |  |  |  |  |  |  |  |  |  | anti-FAM19A5 antibody 1-28 (antibody, V domains shown, Chicken-derived scFv clone; also called Anti-FAM19A5 ("1-28")) VH: AVTLDESGGGLQTPGGALSLVCKASGFDFSDYGMGWVRQAPGKGLEWVAAIRSDGSNPSYGSAVKGRATISKDNGRSTVRLQLNNLRAEDTATYYCAKDGNGYCALDAYRSGGYSCGVYPGSIDAWGHGTEVIVSS VL: ALTQPSSVSANLEGTVEITCSGSGYGYGWYQQKSPGSAPVTVIYQNDKRPSDIPSRFSGSKSGSTGTLTITGVQVEDEAVYYCGSEDSSTLAGIFGAGTTLTVL
2 |  | binds | binds | no binding | binds | no binding | binds | binds | no binding | no binding | no binding | no binding | no binding | no binding | 0.06 | 0.06 | 0.06 | 0.05 | 0.06 | 0.05 | anti-FAM19A5 antibody 2-13 (antibody, V domains shown, Chicken-derived scFv clone; also called Anti-FAM19A5 ("2-13")) VH: AVTLDESGGGLQTPGGALSLVCKASGFTFSSHGMFWVRQTPGKGLEYVAEITNDGSGTNYGSAVKGRATISRDNGQSTVRLQLNNLRAEDTGTYFCARSTYECPGGFSCWGDTGQIDAWGHGTEVIVSS VL: ALTQPSSVSANPGETVKITCSGGSYSYGWFQQKSPGSALVTVIYWDDERPSDIPSRFSGALSGSTNTLTITGVQADDEAVYFCGTEDISGTAGVFGAGTTLTVL
3 |  | binds | no binding | binds | no binding | no binding | binds | binds | no binding | no binding | no binding | no binding | no binding |  | 0.06 | 0.05 | 0.06 | 0.06 | 0.06 | 1.5 | anti-FAM19A5 antibody 1-65 (antibody, V domains shown) VH: AVTLDESGGGLQTPGGALSLVCKASGFTFSSYQMGWVRQAPGKGLEWVGVINKSGSDTSYGSAVKGRATISRDNGQSTVRLQLNNLRAEDTGTYFCAKGSASYITAATIDAWGHGTEVIVSS VL: ALTQPSSVSANPGETVKITCSGGGSSGYGYGWYQQKSPSSAPLTVIYWNDKRPSDIPSRFSGSKSGSTHTLTITGVQAEDEAVYFCGNDDYSSDSGYVGVFGAGTTLTVL
4 |  | binds | binds | binds | binds | binds | binds | no binding |  |  |  |  |  |  |  |  | 3.3 |  |  |  | anti-FAM19A5 antibody 3-2 (antibody, V domains shown, The text reports one result for both formats, so one molecule is written here; also called h3-2; m3-2) VH: not shown VL: ALTQPSSVSANPGETVKITCSGGGSYAGSYYYGWYQQKAPGSAPVTLIYESNKRPSDIPSRFSGSTSGSTATLTITGVQADDEAIYYCGSWDSSNGGIFGAGTTLTVL
